Measurements: US20090130114A1 (Amgen, published 2009)

T1: human WISE (human, UniProt Q6X4U4 24-206)
T1 construct: Recombinant, made in E. coli or mammalian cells; biotinylated in the ELISAs, amine-coupled to CM5 in Biacore; also called huWise; huWISE
T1 sequence: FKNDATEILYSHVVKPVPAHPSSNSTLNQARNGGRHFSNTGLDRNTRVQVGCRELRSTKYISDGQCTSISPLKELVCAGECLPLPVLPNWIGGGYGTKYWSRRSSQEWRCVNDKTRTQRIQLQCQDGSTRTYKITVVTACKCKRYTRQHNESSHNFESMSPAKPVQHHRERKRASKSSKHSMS


target: T1, human WISE; test: assay not specified (IgG2 from transient transfection)

Row | Binder | binding result
1 | Ab-1 (antibody, human IgG2, lambda, V domains shown, Phage-derived human light chain with the humanized Ab-C IgG2 heavy chain, transiently expressed in 293 6E cells) VH: QVQLVQSGAEVKKPGSSVKVSCKASGGTFSSTYISWVRQAPGQGLEWMGWIYAGTGGTRYNRKFTGRVTITADESTSTAYMELSSLRSEDTAVYYCAREGVDGWFTYWGQGTLVTVSS VL: QSVVTQPPSVSGAPGQRVTMSCTGSSSNLGAGYDVNWYQQLPGKAPKVLIYGNEIRPSGVPDRFSGSKSDTSATLDITGLQTGDEADYYCETWDSSLSTVVFGGGTKLTVLG | binds
2 | Ab-16 (antibody, human IgG2, kappa, V domains shown, Phage-derived human light chain with the humanized Ab-C IgG2 heavy chain) VH: QVQLVQSGAEVKKPGSSVKVSCKASGGTFSSTYISWVRQAPGQGLEWMGWIYAGTGGTRYNRKFTGRVTITADESTSTAYMELSSLRSEDTAVYYCAREGVDGWFTYWGQGTLVTVSS VL: DIQLTQSPFSLSASVGDRVTITCRASQSINDNLNWYLQKPGKAPKLLIFAASTSQSGVPSRFSGNGFGTDFSLIISGLQPEDVGTYYCQQNDSMPFTFGQGTRLDIKR | binds
3 | Ab-63 (antibody, human IgG2, lambda, V domains shown, Phage-derived human light chain with the humanized Ab-C IgG2 heavy chain) VH: QVQLVQSGAEVKKPGSSVKVSCKASGGTFSSTYISWVRQAPGQGLEWMGWIYAGTGGTRYNRKFTGRVTITADESTSTAYMELSSLRSEDTAVYYCAREGVDGWFTYWGQGTLVTVSS VL: QSALTQTPSVSGTPGQRVTISCTGSRSNIGAGYDVQWYQQFPGTAPRLLIYANNIRSSGVPDRFSGSKSGTSASLAITGLQAEDEATYYCQSYDRSLSGYVFGTGTEVTVVG | binds
4 | Ab-62 (antibody, human IgG2, lambda, V domains shown, Phage-derived human light chain with the humanized Ab-C IgG2 heavy chain) VH: QVQLVQSGAEVKKPGSSVKVSCKASGGTFSSTYISWVRQAPGQGLEWMGWIYAGTGGTRYNRKFTGRVTITADESTSTAYMELSSLRSEDTAVYYCAREGVDGWFTYWGQGTLVTVSS VL: QAVLTQPSSVSGAPGRRVTISCTGSSSNIGAGYDVHWYQQLPGKAPKLVISANTNRPSGVPDRFSGSKSGTSASLAITGLQAEDEADYYCQSYDNSVSAYVFGTGTKVTVLG | binds
5 | Ab-23 (antibody, human IgG2, kappa, V domains shown, Phage-derived human light chain with the humanized Ab-C IgG2 heavy chain) VH: QVQLVQSGAEVKKPGSSVKVSCKASGGTFSSTYISWVRQAPGQGLEWMGWIYAGTGGTRYNRKFTGRVTITADESTSTAYMELSSLRSEDTAVYYCAREGVDGWFTYWGQGTLVTVSS VL: DIQMTQSPGTLSLSPGERATLFCRASQRVSSSYLAWYQQRPGQAPRLLMYGTSSWATGIPDRFSGSGSGTDFTLTISSLQPEDFATYYCQQSSSIPYTFGQGTKLEIKR | binds
6 | Ab-65 (antibody, human IgG2, lambda, V domains shown, Phage-derived human light chain with the humanized Ab-C IgG2 heavy chain) VH: QVQLVQSGAEVKKPGSSVKVSCKASGGTFSSTYISWVRQAPGQGLEWMGWIYAGTGGTRYNRKFTGRVTITADESTSTAYMELSSLRSEDTAVYYCAREGVDGWFTYWGQGTLVTVSS VL: QSVLTQPPSVSGAPGQRVTISCTGSSSNIGAGYDVHWYQQLPRTAPKLLIYGDTNRPSGVPDRFSGSKSGTSASLAITGLQTEDEADYYCQSYDSSLRAYVFGTGTKVTVLG | binds
7 | light chain of SEQ ID NO: 104 paired with the heavy chain of SEQ ID NO: 24 (antibody, human IgG2, lambda, V domains shown, Phage-derived human light chain with the humanized Ab-C IgG2 heavy chain) VH: QVQLVQSGAEVKKPGSSVKVSCKASGGTFSSTYISWVRQAPGQGLEWMGWIYAGTGGTRYNRKFTGRVTITADESTSTAYMELSSLRSEDTAVYYCAREGVDGWFTYWGQGTLVTVSS VL: NFMLTQPHSVSESPGKTVTISCTRNSGSIASNYVQWYQQRPGSSPATVIYEDNQRPSGVPDRFSGSIDISSNSASLTISGLKTEDEADYYCQSYDSSNPFYVFGTGTKVTVLG | binds
8 | Ab-28 (antibody, human IgG2, kappa, V domains shown, Phage-derived human light chain with the humanized Ab-C IgG2 heavy chain) VH: QVQLVQSGAEVKKPGSSVKVSCKASGGTFSSTYISWVRQAPGQGLEWMGWIYAGTGGTRYNRKFTGRVTITADESTSTAYMELSSLRSEDTAVYYCAREGVDGWFTYWGQGTLVTVSS VL: DIQMTQSPSSLSASVGDRVTITCRASQSISDYLNWYQQRPGKAPNLLIFASNTLQGGVPSRFRGSGSGTDFTLTINSLQHEDFGTYYCQQSYRTPLTFGGGTKVEIKR | binds
9 | Ab-60 (antibody, human IgG2, lambda, V domains shown, Phage-derived human light chain with the humanized Ab-C IgG2 heavy chain) VH: QVQLVQSGAEVKKPGSSVKVSCKASGGTFSSTYISWVRQAPGQGLEWMGWIYAGTGGTRYNRKFTGRVTITADESTSTAYMELSSLRSEDTAVYYCAREGVDGWFTYWGQGTLVTVSS VL: QSVVTQPPAVSGAPGQRITISCTGSSSNIGAGYDVHWYQQFPGTAPKVLIFANDYRPSGVPDRFSASKSATSASLAIRGLQSEDEADYYCQSYDNRLSGYVFGTGTKVTVLG | binds
10 | Ab-13 (antibody, human IgG2, kappa, V domains shown, Phage-derived human light chain with the humanized Ab-C IgG2 heavy chain) VH: QVQLVQSGAEVKKPGSSVKVSCKASGGTFSSTYISWVRQAPGQGLEWMGWIYAGTGGTRYNRKFTGRVTITADESTSTAYMELSSLRSEDTAVYYCAREGVDGWFTYWGQGTLVTVSS VL: DIQMTQSPSSLSASVGDRVTITCRASQSISEYLNWYQQKPGQAPRLLIYGVSTRATGIAARFSGSGSGTDFTLTISSLQPEDSAVYYCQQDYNVPYTFGQGTKLEIKR | binds
11 | Ab-66 (antibody, human IgG2, lambda, V domains shown, Phage-derived human light chain with the humanized Ab-C IgG2 heavy chain) V domain 1: QSVVTQPPSVSGAPGQRVTISCTGSSSNIGAGYDVHWYQQLPGAAPKVLIFGNNNRPSGIPDRVSGSKSGTSASLAISGLQTEDEAVYYCQSYDSSLSAYVFGGGTQVTVLG V domain 2: QVQLVQSGAEVKKPGSSVKVSCKASGGTFSSTYISWVRQAPGQGLEWMGWIYAGTGGTRYNRKFTGRVTITADESTSTAYMELSSLRSEDTAVYYCAREGVDGWFTYWGQGTLVTVSS | binds
12 | Ab-29 (antibody, human IgG2, kappa, V domains shown, Phage-derived human light chain with the humanized Ab-C IgG2 heavy chain) VH: QVQLVQSGAEVKKPGSSVKVSCKASGGTFSSTYISWVRQAPGQGLEWMGWIYAGTGGTRYNRKFTGRVTITADESTSTAYMELSSLRSEDTAVYYCAREGVDGWFTYWGQGTLVTVSS VL: DIQMTQSPLSLSASVGDRVAITCRASQSISDSLNWYQQKPGKPPKIVIYAASGLPSGVPSRFSGGGSGTDFTLVISTLQPEDFATYYCQQSYSAPLTFGGGTKVEISR | binds
13 | Ab-24 (antibody, human IgG2, kappa, V domains shown, Phage-derived human light chain with the humanized Ab-C IgG2 heavy chain) VH: QVQLVQSGAEVKKPGSSVKVSCKASGGTFSSTYISWVRQAPGQGLEWMGWIYAGTGGTRYNRKFTGRVTITADESTSTAYMELSSLRSEDTAVYYCAREGVDGWFTYWGQGTLVTVSS VL: ETTLTQSPALLSLSPGERATLSCRASQTLSFDFFAWYQQKPGQAPSLLISGISTRAAGVPDRFSGSGSGTDFTLTIDRLEPEDFAVYFCQQSSSLPLTFGGGTKVEIRR | binds
14 | Ab-48 (antibody, human IgG2, kappa, V domains shown, Phage-derived human light chain with the humanized Ab-C IgG2 heavy chain) VH: QVQLVQSGAEVKKPGSSVKVSCKASGGTFSSTYISWVRQAPGQGLEWMGWIYAGTGGTRYNRKFTGRVTITADESTSTAYMELSSLRSEDTAVYYCAREGVDGWFTYWGQGTLVTVSS VL: DIQMTQSPSSLSASIGDRVTITCQASQDINNYLNWYQQKQGKAPKVLIFDASNLAAGVPSRFSGSGSGTDFTLTISSLQPEDIATYYCQQYDNLPLTFGQGTKVDNKR | binds
15 | Ab-18 (antibody, human IgG2, kappa, V domains shown, Phage-derived human light chain with the humanized Ab-C IgG2 heavy chain) VH: QVQLVQSGAEVKKPGSSVKVSCKASGGTFSSTYISWVRQAPGQGLEWMGWIYAGTGGTRYNRKFTGRVTITADESTSTAYMELSSLRSEDTAVYYCAREGVDGWFTYWGQGTLVTVSS VL: DIQLTQSPSSLSASVGDRVTITCQASQDINNYLSWYQQKPGKAPKVLIYDTSNLETGVPSRFSGSGSGTDFTFTISSLQPEDIATYYCQQSDNLPYTFGQGTKLEIKR | binds
